From patent publication US11872270B2, “A*03 restricted peptides for use in immunotherapy against cancers and related methods” (Immatics Biotechnologies GmbH, priority 2018, dated 2024)

Target: HLA-A*03:01 (Homo sapiens, UniProt P04439)
Test: MHC binding assay (UV-ligand exchange, β2m ELISA)
Settings: for Peptide exchange (MHC class I binding score, peptide exchange yield): binding to HLA-A*03:01, UV-ligand exchange, β2m ELISA
Source text: Candidate peptides for T cell based therapies according to the present invention were further tested for their MHC binding capacity (affinity). The individual peptide-MHC complexes were produced by UV-ligand exchange, where a UV-sensitive peptide is cleaved upon UV-irradiation and exchanged with the peptide of interest as analyzed. Only peptide candidates that can effectively bind and stabilize the peptide-receptive MHC molecules prevent dissociation of the MHC complexes. To determine the yield of the exchange reaction, an ELISA was performed based on the detection of the light chain (β2m) of stabilized MHC complexes. The assay was performed as generally described in Rodenko et al. (Rodenko et al., 2006) 96 well MAXISorp plates (NUNC) were coated over night with 2 ug/ml streptavidin in PBS at room temperature, washed 4× and blocked for 1 h at 37° C. in 2% BSA containing blocking buffer. Refolded HLA-A*02:01/MLA-001 monomers served as standards, covering the range of 15-500 ng/ml. Peptide-MHC monomers of the UV-exchange reaction were diluted 100-fold in blocking buffer. Samples were incubated for 1 h at 37° C., washed four times, incubated with 2 ug/ml HRP conjugated anti-β2m for 1 h at 37° C., washed again and detected with TMB solution that is stopped with […]. Absorption was measured at 450 nm. Candidate peptides that show a high exchange yield (preferably higher than 50%, most preferred higher than 75%) are generally preferred for a generation and production of antibodies or fragments thereof, and/or T cell receptors or fragments thereof, as they show sufficient avidity to the MHC molecules and prevent dissociation of the MHC complexes.

35 (VLLLLSLLH; listed as Homo sapiens) [compound 35]
Peptide exchange (MHC class I binding score, peptide exchange yield): ++ (>20% = ++)

181 (RVAEEILIK; listed as Homo sapiens) [compound 181]
Peptide exchange (MHC class I binding score, peptide exchange yield): +++ (>50 = +++)

187 (KTCQVSGLLY; listed as Homo sapiens) [compound 187]
Peptide exchange (MHC class I binding score, peptide exchange yield): ++++ (>75% = ++++)

80 (ALCGTQLFY; listed as Homo sapiens) [compound 80]
Peptide exchange (MHC class I binding score, peptide exchange yield): ++++ (>75% = ++++)

42 (RVCMTVDSLVNK; listed as Homo sapiens) [compound 42]
Peptide exchange (MHC class I binding score, peptide exchange yield): ++++ (>75% = ++++)

145 (SLFEGIYTIK; listed as Homo sapiens) [compound 145]
Peptide exchange (MHC class I binding score, peptide exchange yield): ++++ (>75% = ++++)

85 (IMPTFDLTK; listed as Homo sapiens) [compound 85]
Peptide exchange (MHC class I binding score, peptide exchange yield): + (>10% = +)

189 (KVFEEPEDFLK; listed as Homo sapiens) [compound 189]
Peptide exchange (MHC class I binding score, peptide exchange yield): ++ (>20% = ++)

104 (AVVQGLVEK; listed as Homo sapiens) [compound 104]
Peptide exchange (MHC class I binding score, peptide exchange yield): ++ (>20% = ++)

118 (SLRGSFPILY; listed as Homo sapiens) [compound 118]
Peptide exchange (MHC class I binding score, peptide exchange yield): + (>10% = +)

53 (KQALSLVRK; listed as Homo sapiens) [compound 53]
Peptide exchange (MHC class I binding score, peptide exchange yield): +++ (>50 = +++)

15 (RLYAPVVNISRL; listed as Homo sapiens) [compound 15]
Peptide exchange (MHC class I binding score, peptide exchange yield): +++ (>50 = +++)

1 (RVYPHKTLY; listed as Homo sapiens) [compound 1]
Peptide exchange (MHC class I binding score, peptide exchange yield): +++ (>50 = +++)

150 (LLLAAVTVK; listed as Homo sapiens) [compound 150]
Peptide exchange (MHC class I binding score, peptide exchange yield): ++ (>20% = ++)

105 (QVLDLQSVK; listed as Homo sapiens) [compound 105]
Peptide exchange (MHC class I binding score, peptide exchange yield): ++ (>20% = ++)

90 (RTALLWGLKK; listed as Homo sapiens) [compound 90]
Peptide exchange (MHC class I binding score, peptide exchange yield): ++++ (>75% = ++++)

97 (RVRALGSQY; listed as Homo sapiens) [compound 97]
Peptide exchange (MHC class I binding score, peptide exchange yield): ++++ (>75% = ++++)

148 (RIGNKGIYK; listed as Homo sapiens) [compound 148]
Peptide exchange (MHC class I binding score, peptide exchange yield): +++ (>50 = +++)

10 (KARDLRTPK; listed as Homo sapiens) [compound 10]
Peptide exchange (MHC class I binding score, peptide exchange yield): +++ (>50 = +++)

122 (LIGPLLICK; listed as Homo sapiens) [compound 122]
Peptide exchange (MHC class I binding score, peptide exchange yield): ++++ (>75% = ++++)

48 (KGWNGQIFK; listed as Homo sapiens) [compound 48]
Peptide exchange (MHC class I binding score, peptide exchange yield): +++ (>50 = +++)

88 (GTHVWVGLYK; listed as Homo sapiens) [compound 88]
Peptide exchange (MHC class I binding score, peptide exchange yield): ++++ (>75% = ++++)

180 (RLKMAQESVSK; listed as Homo sapiens) [compound 180]
Peptide exchange (MHC class I binding score, peptide exchange yield): ++++ (>75% = ++++)

21 (SSLAELIAK; listed as Homo sapiens) [compound 21]
Peptide exchange (MHC class I binding score, peptide exchange yield): ++ (>20% = ++)

205 (RVYPRPPSK; listed as Homo sapiens) [compound 205]
Peptide exchange (MHC class I binding score, peptide exchange yield): ++++ (>75% = ++++)

119 (RMGFRTLSK; listed as Homo sapiens) [compound 119]
Peptide exchange (MHC class I binding score, peptide exchange yield): ++++ (>75% = ++++)

26 (QLGYQAAVLK; listed as Homo sapiens) [compound 26]
Peptide exchange (MHC class I binding score, peptide exchange yield): +++ (>50 = +++)

261 (AVAQKLLSH; listed as Homo sapiens) [compound 261]
Peptide exchange (MHC class I binding score, peptide exchange yield): ++++ (>75% = ++++)

56 (TTYYPSPLNK; listed as Homo sapiens) [compound 56]
Peptide exchange (MHC class I binding score, peptide exchange yield): +++ (>50 = +++)

114 (SLLTVSGAWAK; listed as Homo sapiens) [compound 114]
Peptide exchange (MHC class I binding score, peptide exchange yield): ++++ (>75% = ++++)

13 (AVAFFVLPSK; listed as Homo sapiens) [compound 13]
Peptide exchange (MHC class I binding score, peptide exchange yield): ++++ (>75% = ++++)

225 (RVYPRPPSKTY; listed as Homo sapiens) [compound 225]
Peptide exchange (MHC class I binding score, peptide exchange yield): ++++ (>75% = ++++)

24 (KLETGVVKK; listed as Homo sapiens) [compound 24]
Peptide exchange (MHC class I binding score, peptide exchange yield): ++++ (>75% = ++++)

165 (AATIISSAK; listed as Homo sapiens) [compound 165]
Peptide exchange (MHC class I binding score, peptide exchange yield): + (>10% = +)

259 (RSYVPLAH; listed as Homo sapiens) [compound 259]
Peptide exchange (MHC class I binding score, peptide exchange yield): ++++ (>75% = ++++)

183 (KVYIPPIINK; listed as Homo sapiens) [compound 183]
Peptide exchange (MHC class I binding score, peptide exchange yield): ++++ (>75% = ++++)

78 (KTGTFVLYKS; listed as Homo sapiens) [compound 78]
Peptide exchange (MHC class I binding score, peptide exchange yield): +++ (>50 = +++)

AVCGGVLVH (listed as Homo sapiens) [SEQ ID NO: 272]
binding to HLA-A*03: binds to HLA-A*03

107 (ILNLNKMVK; listed as Homo sapiens) [compound 107]
Peptide exchange (MHC class I binding score, peptide exchange yield): +++ (>50 = +++)

131 (RVDSKQRYY; listed as Homo sapiens) [compound 131]
Peptide exchange (MHC class I binding score, peptide exchange yield): ++++ (>75% = ++++)

113 (VSIRNTLLY; listed as Homo sapiens) [compound 113]
Peptide exchange (MHC class I binding score, peptide exchange yield): + (>10% = +)

124 (VVYDTMIEK; listed as Homo sapiens) [compound 124]
Peptide exchange (MHC class I binding score, peptide exchange yield): +++ (>50 = +++)

212 (RTIDRSVFK; listed as Homo sapiens) [compound 212]
Peptide exchange (MHC class I binding score, peptide exchange yield): ++++ (>75% = ++++)

23 (RLSPGPRAY; listed as Homo sapiens) [compound 23]
Peptide exchange (MHC class I binding score, peptide exchange yield): +++ (>50 = +++)

171 (ATIGLSVSK; listed as Homo sapiens) [compound 171]
Peptide exchange (MHC class I binding score, peptide exchange yield): ++++ (>75% = ++++)

49 (ITAPLMPLGK; listed as Homo sapiens) [compound 49]
Peptide exchange (MHC class I binding score, peptide exchange yield): ++++ (>75% = ++++)

161 (MKTLPAMLGTGK; listed as Homo sapiens) [compound 161]
Peptide exchange (MHC class I binding score, peptide exchange yield): ++ (>20% = ++)

216 (RVSSVKLISK; listed as Homo sapiens) [compound 216]
Peptide exchange (MHC class I binding score, peptide exchange yield): +++ (>50 = +++)

75 (IIFVPEMNK; listed as Homo sapiens) [compound 75]
Peptide exchange (MHC class I binding score, peptide exchange yield): ++++ (>75% = ++++)

184 (KVLEPPLGAR; listed as Homo sapiens) [compound 184]
Peptide exchange (MHC class I binding score, peptide exchange yield): +++ (>50 = +++)

61 (SLYDSEPRKK; listed as Homo sapiens) [compound 61]
Peptide exchange (MHC class I binding score, peptide exchange yield): ++++ (>75% = ++++)

115 (AILHPFRAK; listed as Homo sapiens) [compound 115]
Peptide exchange (MHC class I binding score, peptide exchange yield): +++ (>50 = +++)

179 (KINPTASLK; listed as Homo sapiens) [compound 179]
Peptide exchange (MHC class I binding score, peptide exchange yield): +++ (>50 = +++)

22 (EGLFLLGCVK; listed as Homo sapiens) [compound 22]
Peptide exchange (MHC class I binding score, peptide exchange yield): +++ (>50 = +++)

125 (VVYDTMIEKF; listed as Homo sapiens) [compound 125]
Peptide exchange (MHC class I binding score, peptide exchange yield): ++++ (>75% = ++++)

192 (RSYSHVVLK; listed as Homo sapiens) [compound 192]
Peptide exchange (MHC class I binding score, peptide exchange yield): ++++ (>75% = ++++)

134 (SLLKPSGDYFK; listed as Homo sapiens) [compound 134]
Peptide exchange (MHC class I binding score, peptide exchange yield): +++ (>50 = +++)

89 (VIYVICRHK; listed as Homo sapiens) [compound 89]
Peptide exchange (MHC class I binding score, peptide exchange yield): +++ (>50 = +++)

127 (GLAAGALLLY; listed as Homo sapiens) [compound 127]
Peptide exchange (MHC class I binding score, peptide exchange yield): ++ (>20% = ++)

154 (TIASVLVAR; listed as Homo sapiens) [compound 154]
Peptide exchange (MHC class I binding score, peptide exchange yield): ++ (>20% = ++)

32 (LLDAEPPILY; listed as Homo sapiens) [compound 32]
Peptide exchange (MHC class I binding score, peptide exchange yield): + (>10% = +)

60 (VVFPFPVNKR; listed as Homo sapiens) [compound 60]
Peptide exchange (MHC class I binding score, peptide exchange yield): +++ (>50 = +++)

59 (KINQYIIKK; listed as Homo sapiens) [compound 59]
Peptide exchange (MHC class I binding score, peptide exchange yield): +++ (>50 = +++)
